{
  "source": "patent US20190119357A1",
  "about": "“MESSENGER RIBONUCLEIC ACIDS FOR THE PRODUCTION OF INTRACELLULAR BINDING POLYPEPTIDES AND METHODS OF USE THEREOF” (ModernaTX, Inc., priority 2015, published 2019)",
  "molecules": {"B1": {"name": "SQT-PUMA-BH3: mRNA (SEQ ID NO: 49, FLAG) encoding SQT scaffold with PUMA BH3 domain in N-terminus, fully modified with 1-methyl-pseudouridine (nucleic acid)", "chain": "ATGATCCCAAGAGAAGAACAGTGGGCACGCGAAATTGGAGCTCAACTCAGACGGATGGCCGACGACCTGAACGCCCAGTACGAGCGGCGGGGACTCTCAGAAGCGAAGCCTGCCACCCCCGAAATCCAGGAAATCGTCGACAAGGTCAAGCCGCAGCTTGAGGAAAAGACCAACGAGACTTACGGAAAACTGGAGGCCGTGCAGTATAAGACCCAAGTGTTGGCCTCCACCAACTACTACATTAAGGTCCGCGCCGGCGATAACAAGTACATGCACCTGAAGGTGTTCAATGGTCCTCCGGGACAGAACGCGGACAGGGTGCTGACTGGCTACCAAGTGGACAAGAACAAGGACGACGAGCTGACGGGCTTCGACTACAAGGATGATGATGACAAA", "modifications": "FLAG tag, 1-methyl-pseudouridine; Synthetic SQT-PUMA-BH3 mRNA sequence with FLAG epitope tag"}},
  "key": {"[1]": {"system": "HeLa cells", "assay": "PARP-1 cleavage by SDS-PAGE and Western blotting after transfection of mRNAs encoding SQT-BH3 constructs", "format": "cell-based", "details": "from anti-FLAG and anti-GFP Western blotting", "excerpt": "The cleavage of PARP-1 was detected by the appearance of a faster-migrating band and concomitant loss of the full-length band by SDS-PAGE and Western blotting. Western blotting with anti-actin antibodies served as a loading control."}, "[2]": {"system": "human melanoma cells (A375)", "assay": "Cell death after mRNA transfection", "format": "cell-based"}, "[3]": {"system": "Hep3B cells", "assay": "Cell death by YOYO-3 with MC3-formulated LNPs", "format": "cell-based", "details": "relatively high concentration", "experimental": "The efficacy of mRNAs encoding SQT-BH3 constructs in inducing cell death was tested both in hepatocellular carcinoma cell lines as well as in primary hepatocytes using lipid nanoparticle (LNP)-formulated constructs. Hep3B cells were treated with varying doses (0.78 ng to 50 ng) of MC3-formulated LNPs in the presence of YOYO-3 (Life Technologies), a DNA dye that is taken up preferentially by dead cells that is used to measure the extent of cell death. MC3 lipid nanoparticles included MC3 50%, DSPC 10%, Cholesterol 38.5%, PEG-DMG 1.5%, N:P ˜5.5."}, "[4]": {"system": "HepG2 cells", "assay": "Cell death by YOYO3 with MC3 LNPs", "format": "cell-based"}, "[5]": {"system": "Hep3b xenografts", "assay": "Efficacy in SCID mice bearing subcutaneous Hep3B xenografts", "format": "in vivo", "details": "SC Hep3B, 2mpk or 3mpk weekly (Day 1 and Day 8), mmRNA with miR-122 binding site in MC3 LNPs (1.5% DSPE)", "experimental": "LNPs comprising the cationic lipid MC3 were tested using the optimal molar percentage of PEG-lipid and optimal PEG length (1.5% DSPE, C18, as described in Example 10), for in vivo targeted delivery of SQT-PUMA-BH3.\nSCID mice were dosed weekly (Day 1 and Day 8) over a two week period with mmRNA encoding SQT-PUMA-BH3 (comprising a miR-122 binding site), as described above."}, "[6]": {"system": "systemic TF1a xenografts", "assay": "Systemic TF1a xenografts in SCID mice (AML model)", "format": "in vivo", "experimental": "(§1) LNPs comprising the cationic lipid MC3 were tested using the optimal percentage of PEG-lipid and optimal PEG length (1.5% DSPE, C18, as described in Example 8), for in vivo targeted delivery of SQT-PUMA-BH3 in two different in vivo models of acute myeloid leukemia (AML). One model used systemic TF1a xenografts in SCID mice. The other model used systemic HEL xenografts in SCID mice. Each of these models uses a human erythroleukemia cell line. The HEL erythroleukia cell line is described in, for example, Martin, P. and Papayannopoulou, T. (1982) Science 216:1233-1235. The TF1 erythroleukmia cell line (from which TF1a is derived) is described in, for example, Kitamura, T. et al. (1989) J. Cell. Physiol. 140:323-334. Unless otherwise noted, mRNAs were fully modified with N1-methlypseudouridine to avoid stimulating an innate immune response to said mRNAs when administered in vivo.\nIn a first set of experiments, TF1a cells stably expressing luciferase (TF1α-luc cells) were implanted systemically in SCID mice. Tumor growth was measured by whole body bioluminescent imaging (BLI) in anaesthetized animals following SC injection of 150 mg/kg D-Luciferin, in an imaging chamber (Spectrum CT). Animals showing an increasing tumor burden at day 12 post-cell implantation were recruited for treatment. Animals were randomized into four study groups, as follows: PBS IV (Group 1), cytarabine at 2 mg/kg three times per week (Group 2), LNPs containing mRNA encoding Green Fluorescent Protein (GFP) at 3 mg/kg one time per week (Group 3) and LNPs containing mRNA encoding SQT-PUMA-BH3 (comprising a miR122 binding site) at 3 mg/kg one time per week. Mice were dosed intravenously for four weeks."}, "[7]": {"system": "systemic HEL xenografts", "assay": "Systemic HEL xenografts in SCID mice (AML model)", "format": "in vivo", "experimental": "as §1\nIn a second set of experiments, HEL cells stably expressing luciferase (HEL-luc cells) were implanted systemically in SCID mice. Tumor growth was measured by whole body bioluminescent imaging (BLI) in anaesthetized animals following SC injection of 150 mg/kg D-Luciferin, in an imaging chamber (Spectrum CT). […] Mice were dosed intravenously at days 28 and 36 and tumor burden was assessed by BLI on days 33, 36, 40 and 43."}, "[8]": {"system": "Hep3B cells", "assay": "SQT-BH3 in combination with siMCL1 or sorafenib, YOYO-3", "format": "cell-based", "details": "10 uM sorafenib tosylate, 24 hours after treatment"}, "[9]": {"details": "TF1a-SCID mice, 3 mg/kg one time per week"}},
  "note": "Entries after “also recorded” stand apart in the source; their conditions may differ.",
  "data": [
    {"molecule": "B1", "values": [
      {"measurement": "cell death of transfected cells", "setting": "[1]", "value": "underwent cell death"},
      {"measurement": "cell death", "setting": "[2]", "value": "caused rapid cell death almost immediately following transfection"},
      {"measurement": "apoptosis and cell death (YOYO-3)", "setting": "[3]", "value": "both induced apoptosis and cell death; also recorded: kills Hep3B cells at higher concentrations"},
      {"measurement": "efficacy and timing of cell killing, comparison", "setting": "[3]", "value": "showed a modest increase in both the efficacy and timing of cell killing compared to SQT-Bim-BH3"},
      {"measurement": "cell death (YOYO3 staining)", "setting": "[4]", "value": "lead to cell death; also recorded: kills HepG2 cells"},
      {"measurement": "tumor growth inhibition (TGI)", "setting": "[5]", "value": "significantly greater TGI than the mice treated with PBS alone"},
      {"measurement": "body weight", "setting": "[6]; [9]", "value": "did not cause significant body weight changes"},
      {"measurement": "tolerability / treatment-related mortality", "setting": "[6]; [9]", "value": "well tolerated, resulting in no treatment-related mortality"},
      {"measurement": "systemic tumor growth (BLI)", "setting": "[6]; TF1a-SCID, mRNA LNPs 3 mg/kg one time per week, cytarabine 2 mg/kg three times per week, IV, four weeks", "value": "led to greater tumor growth inhibition than treatment with cytarabine"},
      {"measurement": "tumor growth inhibition (TGI), BLI", "setting": "[7]; 1.5 mg/kg IV at days 28 and 36, by days 40 and 43", "value": "exhibited greater tumor growth inhibition (TGI) as compared to the mice treated with the PBS or GFP controls"},
      {"measurement": "tumor growth inhibition (TGI), BLI", "setting": "[7]; 3 mg/kg IV at days 28 and 36, at day 33", "value": "already exhibited significantly greater tumor growth inhibition than the mice treated with the PBS or GFP controls"},
      {"measurement": "apoptosis (YOYO-3) in combination with either siMCL1 or sorafenib", "setting": "[8]", "value": "led to a marked increase in apoptosis as compared to treatment with the SQT-BH3 construct in combination with non-targeting siRNA or PBS; also recorded: synergistic pro-apoptotic effect"}
    ]}
  ]
}
